# Data: publication PMC13142116, “Development and structure-guided characterization of a novel ACE2-binding macrocyclic peptide” (Journal of Structural Biology: X, 2026)
# Positions of bridges follow the written chain, without caps; N, C: chain ends. Non-standard residues stand in square brackets, D forms with d. Residues, ends and D or L forms follow the SMILES beside them. *: point of attachment. DOTA = O=C(O)CN1CCN(CC(=O)O)CCN(CC(=O)*)CCN(CC(=O)O)CC1
# Tests used:
# in vitro = in vitro ADME; conditions: mouse, plasma
# Protocol: Additionally, the integrity of [^67Ga]Ga-DOTA-WJL-63 (20 MBq/nmol) in mouse and human blood plasma (Rockland Immunochemicals, Inc. PA, USA and Blood donation SRK Aargau-Solothurn, Switzerland) was determined using thin layer chromatography (TLC). Reversed phase C-18 plates (TLC Silica gel 60 RP-18; Merck) were used as the stationary phase and a mixture of citrate buffer (pH 5.5; 0.1 M) and acetonitrile (7:3; v/v) as the mobile phase. Under these conditions, uncoordinated gallium-67 migrated with the front while the radiopeptide and potential larger fragments migrated to the center of the plate. […] The quantification of the signals was carried out using the OptiQuant software (version 5.0, Bright Instrument Co Ltd., PerkinElmer). The obtained chromatograms were analyzed by determination of the peak area of the radiolabeled peptide, the released gallium-67 as well as degradation products of unknown structure. The quantity of the intact product was expressed as the percentage of the sum of integrated peak areas of the entire chromatogram and set in relation to the value determined at the respective timepoints of the radiopeptide diluted in saline which was set as 100% to correct for TLC artefacts. The results were then expressed as average ± SD from n = 3 independent experiments.
# [1] = format: physicochemical
# Protocol: The distribution coefficient (logD value) of [^67Ga]Ga-DOTA-WJL-63 was determined using a shake-flask method as previously reported for DX600 radiopeptides ([Beyer et al., 2023]). The distribution coefficients were indicated as the average of n = 3 independent measurements ± standard deviation (SD), each performed with five replicates.
smiles,measurement,setting,value
"CC[C@H](C)[C@@H]1NC(=O)[C@H](CCC(N)=O)NC(=O)[C@H]([C@@H](C)O)NC(=O)[C@H](CO)NC(=O)[C@@H](Cc2ccc(O)cc2)NC(=O)CSC[C@@H](C(=O)NCC(=O)N[C@@H](CO)C(=O)NCC(=O)N[C@@H](CO)C(=O)NCC(=O)N[C@@H](CO)C(=O)N[C@@H](CCCCNC(=O)CN2CCN(CC(=O)O)CCN(CC(=O)O)CCN(CC(=O)O)CC2)C(N)=O)NC(=O)CNC(=O)[C@H](CCCNC(=N)N)NC(=O)[C@H](CO)NC(=O)[C@H](CC(=O)O)NC(=O)[C@H](CCCNC(=N)N)NC(=O)[C@H]([C@@H](C)O)NC(=O)[C@H](Cc2ccccc2)NC(=O)CNC(=O)[C@H](CCCNC(=N)N)NC(=O)[C@H](CO)NC1=O [[^67Ga]Ga-DOTA-WJL-63, metal not drawn] ({CH2CO}-[dY]STQISRGFTRDSRGCGSGSGSK(DOTA)-NH2; thioether N-16)","remaining at 1 h, 10 MBq/200 µL",in vitro,91%
same,"remaining at 3 h, 10 MBq/200 µL",in vitro,69%
same,logD value,[1],− 4.4 ± 0.1
